Experimental data taken from patent publication US20150366985A1.

Target: protein A found on S. aureus (Staphylococcus aureus) (UniProt P02976)
Experiment: FACS, Alexa-488 labeled antibodies at 0.08-50 ug/mL on MRSA isolated from infected mouse kidneys; low level binding attributed by the filing to protein A

Chain of protein A found on S. aureus (Staphylococcus aureus) (P02976 37-485): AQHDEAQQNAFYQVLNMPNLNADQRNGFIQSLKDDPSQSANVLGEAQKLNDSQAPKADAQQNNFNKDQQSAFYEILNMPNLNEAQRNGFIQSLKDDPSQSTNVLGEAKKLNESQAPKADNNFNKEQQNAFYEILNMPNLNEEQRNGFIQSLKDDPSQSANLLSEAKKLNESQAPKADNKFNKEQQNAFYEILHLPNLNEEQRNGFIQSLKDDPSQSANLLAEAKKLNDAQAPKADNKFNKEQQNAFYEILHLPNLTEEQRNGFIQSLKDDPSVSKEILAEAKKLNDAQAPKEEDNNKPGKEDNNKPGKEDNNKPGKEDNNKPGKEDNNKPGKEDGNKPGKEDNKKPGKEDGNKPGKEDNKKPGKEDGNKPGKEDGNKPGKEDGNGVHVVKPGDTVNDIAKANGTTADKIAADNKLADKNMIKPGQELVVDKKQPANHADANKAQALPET

Question: How did the fold lower binding than the S4497 antibody (fold lower than S4497 antibody) turn out when “gD antibody (negative control human IgG1 that does not recognize S. aureus)” was run?
Answer: The fold lower binding than the S4497 antibody (fold lower than S4497 antibody) was 30.
